Measurements: the supplement of paper PMC5998384

Tests used:
HeLa Kyoto [1] = assay: solubility in G1/S (NP-40 vs SDS abundance) (log2 ratio); higher = more soluble; conditions: cell cycle stage: G1/S
HeLa Kyoto [2] = assay: melting temperature (median over replicates), in situ; higher = more thermally stable
HeLa Kyoto [3] = assay: solubility change mitosis vs G1/S (difference of NP-40 vs SDS log2 ratios) (log2 ratio difference); higher = more soluble in mitosis
HeLa Kyoto [4] = assay: thermal stability score vs G1/S (z-score of summed log2 fold changes over temperatures); higher = more thermally stable than in G1/S
[5] = cell cycle stage: early G1 (4.5 h after nocodazole release)
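Throughout, for melting temperature (median over replicates), in situ: HeLa Kyoto cells synchronized by double thymidine or nocodazole block, proteins quantified by TMT10plex mass spectrometry, three independent biological replicates.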
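Throughout, for solubility change mitosis vs G1/S (difference of NP-40 vs SDS log2 ratios): synchronized HeLa Kyoto cells (double thymidine block for G1/S, nocodazole release for mitosis), protein amounts in NP-40 versus SDS lysates quantified by mass spectrometry, three biological replicates.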
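Throughout, for solubility in G1/S (NP-40 vs SDS abundance): HeLa Kyoto cells arrested at G1/S by double thymidine block, proteins quantified by TMT10plex mass spectrometry in mild NP-40 versus SDS extracts, three biological replicates.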
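Throughout, for thermal stability score vs G1/S (z-score of summed log2 fold changes over temperatures): synchronized HeLa Kyoto cells, proteins quantified by TMT10plex mass spectrometry, three biological replicates, mitosis taken 0.5 h after nocodazole release, G1/S directly after double thymidine block.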

| Sequence | solubility in G1/S (log2) (HeLa Kyoto [1]) | melting temperature (HeLa Kyoto [2]; cell cycle stage: G1/S) [°C] | melting temperature (HeLa Kyoto [2]; cell cycle stage: mitosis) [°C] | solubility change mitosis (log2) (HeLa Kyoto [3]) | thermal stability score (HeLa Kyoto [4]; [5]) | thermal stability score (HeLa Kyoto [4]; cell cycle stage: mitosis) |
| --- | --- | --- | --- | --- | --- | --- |
| MDSLEEPQKKVFKARKTMRVSDRQQLEAVYKVKEELLKTDVKLLNGNHENGDLDPTSPLENMDYIKDKEEVNGIEEICFDPEGSKAEWKETPCILSVNVKNKQDDDLNCEPLSPHNITPEPVSKLPAEPVSGDPAPGDLDAGDPASGVLASGDSTSGDPTSSEPSSSDAASGDATSGDAPSGDVSPGDATSGDATADDLSSGDPTSSDPIPGEPVPVEPISGDCAADDIASSEITSVDLASGAPASTDPASDDLASGDLSSSELASDDLATGELASDELTSESTFDRTFEPKSVPVCEPVPEIDNIEPSSNKDDDFLEKNGADEKLEQIQSKDSLDEKNKADNNIDANEETLETDDTTICSDRPPENEKKVEEDIITELALGEDAISSSMEIDQGEKNEDETSADLVETINENVIEDNKSENILENTDSMETDEIIPILEKLAPSEDELTCFSKTSLLPIDETNPDLEEKMESSFGSPSKQESSESLPKEAFLVLSDEEDISGEKDESEVISQNETCSPAEVESNEKDNKPEEEEQVIHEDDERPSEKNEFSRRKRSKSEDMDNVQSKRRRYMEEEYEAEFQVKITAKGDINQKLQKVIQWLLEEKLCALQCAVFDKTLAELKTRVEKIECNKRHKTVLTELQAKIARLTKRFEAAKEDLKKRHEHPPNPPVSPGKTVNDVNSNNNMSYRNAGTVRQMLESKRNVSESAPPSFQTPVNTVSSTNLVTPPAVVSSQPKLQTPVTSGSLTATSVLPAPNTATVVATTQVPSGNPQPTISLQPLPVILHVPVAVSSQPQLLQSHPGTLVTNQPSGNVEFISVQSPPTVSGLTKNPVSLPSLPNPTKPNNVPSVPSPSIQRNPTASAAPLGTTLAVQAVPTAHSIVQATRTSLPTVGPSGLYSPSTNRGPIQMKIPISAFSTSSAAEQNSNTTPRIENQTNKTIDASVSKKAADSTSQCGKATGSDSSGVIDLTMDDEESGASQDPKKLNHTPVSTMSSSQPVSRPLQPIQPAPPLQPSGVPTSGPSQTTIHLLPTAPTTVNVTHRPVTQVTTRLPVPRAPANHQVVYTTLPAPPAQAPLRGTVMQAPAVRQVNPQNSVTVRVPQTTTYVVNNGLTLGSTGPQLTVHHRPPQVHTEPPRPVHPAPLPEAPQPQRLPPEAASTSLPQKPHLKLARVQSQNGIVLSWSVLEVDRSCATVDSYHLYAYHEEPSATVPSQWKKIGEVKALPLPMACTLTQFVSGSKYYFAVRAKDIYGRFGPFCDPQSTDVISSTQSS [ATF7IP] | 0.0405 | 49 | 49.8 | -0.146 | 0.103 | 1.25 |
| MDSNTAPLGPSCPQPPPAPQPQARSRLNATASLEQERSERPRAPGPQAGPGPGVRDAAAPAEPQAQHTRSRERADGTGPTKGDMEIPFEEVLERAKAGDPKAQTEVGKHYLQLAGDTDEELNSCTAVDWLVLAAKQGRREAVKLLRRCLADRRGITSENEREVRQLSSETDLERAVRKAALVMYWKLNPKKKKQVAVAELLENVGQVNEHDGGAQPGPVPKSLQKQRRMLERLVSSESKNYIALDDFVEITKKYAKGVIPSSLFLQDDEDDDELAGKSPEDLPLRLKVVKYPLHAIMEIKEYLIDMASRAGMHWLSTIIPTHHINALIFFFIVSNLTIDFFAFFIPLVIFYLSFISMVICTLKVFQDSKAWENFRTLTDLLLRFEPNLDVEQAEVNFGWNHLEPYAHFLLSVFFVIFSFPIASKDCIPCSELAVITGFFTVTSYLSLSTHAEPYTRRALATEVTAGLLSLLPSMPLNWPYLKVLGQTFITVPVGHLVVLNVSVPCLLYVYLLYLFFRMAQLRNFKGTYCYLVPYLVCFMWCELSVVILLESTGLGLLRASIGYFLFLFALPILVAGLALVGVLQFARWFTSLELTKIAVTVAVCSVPLLLRWWTKASFSVVGMVKSLTRSSMVKLILVWLTAIVLFCWFYVYRSEGMKVYNSTLTWQQYGALCGPRAWKETNMARTQILCSHLEGHRVTWTGRFKYVRVTDIDNSAESAINMLPFFIGDWMRCLYGEAYPACSPGNTSTAEEELCRLKLLAKHPCHIKKFDRYKFEITVGMPFSSGADGSRSREEDDVTKDIVLRASSEFKSVLLSLRQGSLIEFSTILEGRLGSKWPVFELKAISCLNCMAQLSPTRRHVKIEHDWRSTVHGAVKFAFDFFFFPFLSAA [WFS1] | 0.109 | 51.7 | 52.2 | -0.183 | 2.34 | 3.05 |
| MDSRYNSTAGIGDLNQLSAAIPATRVEVSVSCRNLLDRDTFSKSDPICVLYVQGVGNKEWREFGRTEVIDNTLNPDFVRKFILDYFFEERENLRFDLYDVDSKSPNLSKHDFLGQVFCTLGEIVGSQGSRLEKPIVGIPGKKCGTIILTAEELNCCRDAVLMQFCANKLDKKDFFGKSDPFLVFYRSNEDGSFTICHKTEVVKNTLNPVWQAFKISVRALCNGDYDRTIKVEVYDWDRDGSHDFIGEFTTSYRELSRGQSQFNVYEVVNPKKKGKKKKYTNSGTVTLLSFLVETEVSFLDYIKGGTQINFTVAIDFTASNGNPAQPTSLHYMNPYQLNAYGMALKAVGEIVQDYDSDKMFPALGFGAKLPPDGRISHEFALNGNPQNPYCDGIEGVMEAYYRSLKSVQLYGPTNFAPVINHVARYASSVKDGSQYFVLLIVTDGVISDMAQTKESIVNASKLPMSIIIVGVGPAEFDAMVELDGDDVRVSSRGKYAERDIVQFVPFRDYIDRSGNHILSMARLAKDVLAEIPEQFLSYMRARGIKPSPAPPPYTPPTHVLQTQI [CPNE8] | -1.4 | 54.1 | 53 | -0.135 | 1.74 | 5.6 |
| MDTCGVGYVALGEAGPVGNMTVVDSPGQEVLNQLDVKTSSEMTSAEASVEMSLPTPLPGFEDSPDQRRLPPEQESLSRLEQPDLSSEMSKVSKPRASKPGRKRGGRTRKGPKRPQQPNPPSAPLVPGLLDQSNPLSTPMPKKRGRKSKAELLLLKLSKDLDRPESQSPKRPPEDFETPSGERPRRRAAQVALLYLQELAEELSTALPAPVSCPEGPKVSSPTKPKKIRQPAACPGGEEVDGAPRDEDFFLQVEAEDVEESEGPSESSSEPEPVVPRSTPRGSTSGKQKPHCRGMAPNGLPNHIMAPVWKCLHLTKDFREQKHSYWEFAEWIPLAWKWHLLSELEAAPYLPQEEKSPLFSVQREGLPEDGTLYRINRFSSITAHPERWDVSFFTGGPLWALDWCPVPEGAGASQYVALFSSPDMNETHPLSQLHSGPGLLQLWGLGTLQQESCPGNRAHFVYGIACDNGCIWDLKFCPSGAWELPGTPRKAPLLPRLGLLALACSDGKVLLFSLPHPEALLAQQPPDAVKPAIYKVQCVATLQVGSMQATDPSECGQCLSLAWMPTRPHQHLAAGYYNGMVVFWNLPTNSPLQRIRLSDGSLKLYPFQCFLAHDQAVRTLQWCKANSHFLVSAGSDRKIKFWDLRRPYEPINSIKRFLSTELAWLLPYNGVTVAQDNCYASYGLCGIHYIDAGYLGFKAYFTAPRKGTVWSLSGSDWLGTIAAGDISGELIAAILPDMALNPINVKRPVERRFPIYKADLIPYQDSPEGPDHSSASSGVPNPPKARTYTETVNHHYLLFQDTDLGSFHDLLRREPMLRMQEGEGHSQLCLDRLQLEAIHKVRFSPNLDSYGWLVSGGQSGLVRIHFVRGLASPLGHRMQLESRAHFNAMFQPSSPTRRPGFSPTSHRLLPTP [GTF3C2] | -0.18 | 46.5 | 49.5 | 0.119 | 2.79 | 6.24 |
| MDTDLYDEFGNYIGPELDSDEDDDELGRETKDLDEMDDDDDDDDVGDHDDDHPGMEVVLHEDKKYYPTAEEVYGPEVETIVQEEDTQPLTEPIIKPVKTKKFTLMEQTLPVTVYEMDFLADLMDNSELIRNVTLCGHLHHGKTCFVDCLIEQTHPEIRKRYDQDLCYTDILFTEQERGVGIKSTPVTVVLPDTKGKSYLFNIMDTPGHVNFSDEVTAGLRISDGVVLFIDAAEGVMLNTERLIKHAVQERLAVTVCINKIDRLILELKLPPTDAYYKLRHIVDEVNGLISMYSTDENLILSPLLGNVCFSSSQYSICFTLGSFAKIYADTFGDINYQEFAKRLWGDIYFNPKTRKFTKKAPTSSSQRSFVEFILEPLYKILAQVVGDVDTSLPRTLDELGIHLTKEELKLNIRPLLRLVCKKFFGEFTGFVDMCVQHIPSPKVGAKPKIEHTYTGGVDSDLGEAMSDCDPDGPLMCHTTKMYSTDDGVQFHAFGRVLSGTIHAGQPVKVLGENYTLEDEEDSQICTVGRLWISVARYHIEVNRVPAGNWVLIEGVDQPIVKTATITEPRGNEEAQIFRPLKFNTTSVIKIAVEPVNPSELPKMLDGLRKVNKSYPSLTTKVEESGEHVILGTGELYLDCVMHDLRKMYSEIDIKVADPVVTFCETVVETSSLKCFAETPNKKNKITMIAEPLEKGLAEDIENEVVQITWNRKKLGEFFQTKYDWDLLAARSIWAFGPDATGPNILVDDTLPSEVDKALLGSVKDSIVQGFQWGTREGPLCDELIRNVKFKILDAVVAQEPLHRGGGQIIPTARRVVYSAFLMATPRLMEPYYFVEVQAPADCVSAVYTVLARRRGHVTQDAPIPGSPLYTIKAFIPAIDSFGFETDLRTHTQGQAFSLSVFHHWQIVPGDPLDKSIVIRPLEPQPAPHLAREFMIKTRRRKGLSEDVSISKFFDDPMLLELAKQDVVLNYPM [EFTUD2] | -0.443 | 57.4 | 56.2 | 0.215 | -1.97 | -2.33 |
| MDTEGFGELLQQAEQLAAETEGISELPHVERNLQEIQQAGERLRSRTLTRTSQETADVKASVLLGSRGLDISHISQRLESLSAATTFEPLEPVKDTDIQGFLKNEKDNALLSAIEESRKRTFGMAEEYHRESMLVEWEQVKQRILHTLLASGEDALDFTQESEPSYISDVGPPGRSSLDNIEMAYARQIYIYNEKIVNGHLQPNLVDLCASVAELDDKSISDMWTMVKQMTDVLLTPATDALKNRSSVEVRMEFVRQALAYLEQSYKNYTLVTVFGNLHQAQLGGVPGTYQLVRSFLNIKLPAPLPGLQDGEVEGHPVWALIYYCMRCGDLLAASQVVNRAQHQLGEFKTWFQEYMNSKDRRLSPATENKLRLHYRRALRNNTDPYKRAVYCIIGRCDVTDNQSEVADKTEDYLWLKLNQVCFDDDGTSSPQDRLTLSQFQKQLLEDYGESHFTVNQQPFLYFQVLFLTAQFEAAVAFLFRMERLRCHAVHVALVLFELKLLLKSSGQSAQLLSHEPGDPPCLRRLNFVRLLMLYTRKFESTDPREALQYFYFLRDEKDSQGENMFLRCVSELVIESREFDMILGKLENDGSRKPGVIDKFTSDTKPIINKVASVAENKGLFEEAAKLYDLAKNADKVLELMNKLLSPVVPQISAPQSNKERLKNMALSIAERYRAQGISANKFVDSTFYLLLDLITFFDEYHSGHIDRAFDIIERLKLVPLNQESVEERVAAFRNFSDEIRHNLSEVLLATMNILFTQFKRLKGTSPSSSSRPQRVIEDRDSQLRSQARTLITFAGMIPYRTSGDTNARLVQMEVLMN [NUP93] | -0.149 | 51.9 | 48.3 | 0.117 | -3.26 | -4.55 |
| MDTPPLSDSESESDESLVTDRELQDAFSRGLLKPGLNVVLEGPKKAVNDVNGLKQCLAEFKRDLEWVERLDVTLGPVPEIGGSEAPAPQNKDQKAVDPEDDFQREMSFYRQAQAAVLAVLPRLHQLKVPTKRPTDYFAEMAKSDLQMQKIRQKLQTKQAAMERSEKAKQLRALRKYGKKVQTEVLQKRQQEKAHMMNAIKKYQKGFSDKLDFLEGDQKPLAQRKKAGAKGQQMRKGPSAKRRYKNQKFGFGGKKKGSKWNTRESYDDVSSFRAKTAHGRGLKRPGKKGSNKRPGKRTREKMKNRTH [EBNA1BP2] | -1.71 | 54 | 53.4 | 1.38 | 0.765 | 0.121 |
